Assay [1] has as its target Syk tandem SH2 (tSH2) domain. In words: intrinsic Trp fluorescence; 0 mM KCl, 150 mM NaCl.
The target in assay [2] is Syk tandem SH2 (tSH2) domain. In words: intrinsic Trp fluorescence; 5 mM KCl, 145 mM NaCl.
In assay [3] the target is Syk tandem SH2 (tSH2) domain. Description: intrinsic Trp fluorescence; 20 mM KCl, 130 mM NaCl.
The target of assay [4] is Syk tandem SH2 (tSH2) domain. Description: intrinsic Trp fluorescence; 50 mM KCl, 100 mM NaCl.
The target in assay [5] is Syk tandem SH2 (tSH2) domain. In words: FP; 0 mM KCl, 150 mM NaCl.
Assay [6] concerns the target Syk tandem SH2 (tSH2) domain. In words: FP; 5 mM KCl, 145 mM NaCl.
Assay [7] deals with Syk tandem SH2 (tSH2) domain. In words: FP; 20 mM KCl, 130 mM NaCl.
The target in assay [8] is Syk tandem SH2 (tSH2) domain. Description: FP; 50 mM KCl, 100 mM NaCl.

Non-standard residues stand in square brackets, D forms with d. No end group written: not given here. pY = N[C@@H](Cc1ccc(OP(=O)(O)O)cc1)C(=O)O

B1: ITAM-ζ1-Y2P peptide (doubly phosphorylated first ITAM of the CD3-ζ chain) (peptide)
chain: NQL[pY]NELNLGRREE[pY]DVLD
In the case of B1, the Kd in assay [1] worked out at 97.5 nM; in assay [2], 86 nM; in assay [3], 84.3 nM; in assay [4] it was 82.7 nM.

B2: ITAM-ζ1-Y2P peptide labeled with AlexaFluor488 (peptide)
chain: NQL[pY]NELNLGRREE[pY]DVLD
modifications: also: AlexaFluor 488 label, position not given here
In the case of B2, the equilibrium dissociation constant (Kd) in assay [5] came to 85.5 nM; in assay [6], 85.5 nM; in assay [7], 81.1 nM; in assay [8] it was 84.9 nM.

Usually Kd stands for the concentration at which binding is half-saturated. Low values mean higher affinity, high ones lower affinity.

The values above are taken from article PMC13235457 (2026).
